Measured values from patent US20230331820A1 (GlaxoSmithKline, published 2023).
Like-named read-outs stand apart in the source and are kept apart here.

Columns and labels:
[1] = molecular target: T1, gI WT: HSV2 gI wildtype ectodomain (HSV2, UniProt P06764 21-256); test: ELISA, supernatant
[2] = molecular target: T2, gEgI WT: HSV2 gEgI heterodimer comprising gE and gI wildtype ectodomains (HSV2, UniProt P89475 21-416; P06764 21-256); test: ELISA, supernatant
[3] = molecular target: T3, gE WT: HSV2 gE wildtype ectodomain (HSV2, UniProt P89475 21-416); test: ELISA, supernatant
[4] = molecular target: gEgI mutant (R320D): HSV2 gEgI mutant heterodimer comprising gE and gI ectodomains with mutation R320D in gE (HSV2, UniProt P89475 21-416; P06764 21-256); test: ELISA, supernatant
[5] = molecular target: gEgI mutant (338): HSV2 gEgI mutant heterodimer comprising gE and gI ectodomains with insertion of a (HSV2, UniProt P89475 21-416; P06764 21-256); test: ELISA, supernatant
[6] = molecular target: gEgI mutant (P319D): HSV2 gEgI mutant heterodimer comprising gE and gI ectodomains with mutation P319D in gE (HSV2, UniProt P89475 21-416; P06764 21-256); test: ELISA, supernatant
[7] = molecular target: gEgI mutant (P317R): HSV2 gEgI mutant heterodimer comprising gE and gI ectodomains with mutation P317R in gE (HSV2, UniProt P89475 21-416; P06764 21-256); test: ELISA, supernatant
[8] = molecular target: T3, gE WT: HSV2 gE wildtype ectodomain; test: ELISA, supernatant; remark: listed apart in the source
[9] = molecular target: T1, gI WT: HSV2 gI wildtype ectodomain; test: ELISA, supernatant; remark: listed apart in the source
[10] = molecular target: T2, gEgI WT: HSV2 gEgI heterodimer …; test: SPR binning; gEgI captured by mAb 10
[11] = molecular target: T2, gEgI WT: HSV2 gEgI heterodimer …; test: SPR binning; gEgI captured by mAb 15
[12] = molecular target: T2, gEgI WT: HSV2 gEgI heterodimer …; test: SPR binning; gEgI captured by mAb 34
[13] = molecular target: T2, gEgI WT: HSV2 gEgI heterodimer …; test: SPR binning; gEgI captured by mAb 19
[14] = molecular target: T2, gEgI WT: HSV2 gEgI heterodimer …; test: SPR binning; gEgI captured by mAb 9
[15] = molecular target: T2, gEgI WT: HSV2 gEgI heterodimer …; test: SPR binning; gEgI captured by mAb 17
[16] = molecular target: T2, gEgI WT: HSV2 gEgI heterodimer …; test: SPR binning; gEgI captured by mAb 5
[17] = molecular target: T2, gEgI WT: HSV2 gEgI heterodimer …; test: SPR binning; gEgI captured by mAb 40
[18] = molecular target: T2, gEgI WT: HSV2 gEgI heterodimer …; test: SPR binning; gEgI captured by mAb 24
[19] = molecular target: T2, gEgI WT: HSV2 gEgI heterodimer …; test: SPR binning; gEgI captured by mAb 39
[20] = molecular target: T2, gEgI WT: HSV2 gEgI heterodimer …; test: SPR binning; gEgI captured by mAb 20
[21] = molecular target: T2, gEgI WT: HSV2 gEgI heterodimer …; test: SPR binning; gEgI captured by mAb 45
[22] = molecular target: T2, gEgI WT: HSV2 gEgI heterodimer …; test: SPR binning; gEgI captured by mAb 42

Row | Binder | binding result [1] | binding result [2] | binding result [4] | binding result [5] | binding result [6] | binding result [7] | binding result [8] | further results
1 | mAb clone 41 (antibody, V domains shown) VH: QVQLQQSGAELVRPGTSVKVSCKASGYAFTNYLIEWVKQRPGQGLEWIGVINPGSGGTNYNEKFKGKATLTADKSSSTAYMQLSSLTSDDSAVYFCARSGLRRDYYAMDYWGQGTSVTVSS VL: not shown | binds | binds | binds | binds | binds | binds | – | binding result [3]: no binding
2 | mAb clone 37 (antibody, V domains shown) VH: EVQLQQSGPELVKPGASVKISCKASGYTFTDYNMHWVKQSHGKSLEWIGYIYPYNGGTGYNQKFKTKATLTVDNSSSTAYMELRSLTSEDSAVYYCAIPGYYYAMDYWGQGTSVTVSS VL: DIVLTQSPASLAVSLGQRATISCRASKSVSTSGYSYMHWYQQKPGQPPKLLIYLASNLESGVPARFSGSGSGTDFTLNIHPVEEEDASTYYCHHSRELPRTFGGGTKLEIK | no binding | binds | binds | binds | binds | binds | binds | –
3 | mAb clone 48 (antibody, V domains shown) VH: QVTLKESGPGILQPSQTLSLTCSFSGFSLSTSGMGVSWIRQPSGKGLEWLAHIYWDDDKRYNPSLKSRLTISKDTSSNQVFLKITSVDTADTATYYCARRGFYYRYDGGRRYYYAMDYWGQGTSVTVSS VL: DILLTQSPAILSVSPGERVSFSCRASQSIGTSIHWYQQGTNGSPRLLIKFASESISGIPSRFSGSGSGTDFTLSINSVESEDIADYYCQQSNSWPLTFGAGTKLELK | – | binds | binds | binds | binds | binds | binds | binding result [9]: no binding
4 | mAb clone 40 (antibody, V domains shown) VH: QIQLVQSGPELKKPGETVKISCKASGYTFTNYGMNWVKQAPGKGLKWMGWINTYTGEPTYADDFKGRFAFSLETSASTAYLQINNLKNEDTATYFCARSLYGYDEGYFDVWGAGTTVTVSS VL: DIQMTQSPASLSASVGETVTITCRASGNIHNYLAWYQQKQGKSPQLLVYNAKTLADGVPSRFSGSGSGTQYSLKINSLQPEDFGSYYCQHFWSTPYTFGGGTKLEIK | no binding | – | – | binds | – | – | no binding | RU [10]: 9.8 RU; RU [11]: -0.4 RU; RU [12]: 5.2 RU; RU [13]: 6.4 RU; RU [14]: 8.8 RU; RU [15]: 8.8 RU; RU [16]: 9 RU; RU [17]: 2.6 RU; RU [18]: 7.6 RU; RU [19]: 9 RU; RU [20]: 10 RU; RU [21]: 7.3 RU; RU [22]: 7.4 RU
